The record followed here is patent publication US20130089497A1 (Genentech, published 2013).

By Kd is commonly meant the free concentration of one partner at which half of the binding sites on the other are occupied at equilibrium, for simple one-to-one binding. A lower Kd goes with a tighter complex.

Test [1] deals with T1, cynomolgus FcRH5 on stably transfected SVT2 cells (cynomologous monkey).
T1 construct: also called cyno FcRH5; cynoFcRH5
T1 chain: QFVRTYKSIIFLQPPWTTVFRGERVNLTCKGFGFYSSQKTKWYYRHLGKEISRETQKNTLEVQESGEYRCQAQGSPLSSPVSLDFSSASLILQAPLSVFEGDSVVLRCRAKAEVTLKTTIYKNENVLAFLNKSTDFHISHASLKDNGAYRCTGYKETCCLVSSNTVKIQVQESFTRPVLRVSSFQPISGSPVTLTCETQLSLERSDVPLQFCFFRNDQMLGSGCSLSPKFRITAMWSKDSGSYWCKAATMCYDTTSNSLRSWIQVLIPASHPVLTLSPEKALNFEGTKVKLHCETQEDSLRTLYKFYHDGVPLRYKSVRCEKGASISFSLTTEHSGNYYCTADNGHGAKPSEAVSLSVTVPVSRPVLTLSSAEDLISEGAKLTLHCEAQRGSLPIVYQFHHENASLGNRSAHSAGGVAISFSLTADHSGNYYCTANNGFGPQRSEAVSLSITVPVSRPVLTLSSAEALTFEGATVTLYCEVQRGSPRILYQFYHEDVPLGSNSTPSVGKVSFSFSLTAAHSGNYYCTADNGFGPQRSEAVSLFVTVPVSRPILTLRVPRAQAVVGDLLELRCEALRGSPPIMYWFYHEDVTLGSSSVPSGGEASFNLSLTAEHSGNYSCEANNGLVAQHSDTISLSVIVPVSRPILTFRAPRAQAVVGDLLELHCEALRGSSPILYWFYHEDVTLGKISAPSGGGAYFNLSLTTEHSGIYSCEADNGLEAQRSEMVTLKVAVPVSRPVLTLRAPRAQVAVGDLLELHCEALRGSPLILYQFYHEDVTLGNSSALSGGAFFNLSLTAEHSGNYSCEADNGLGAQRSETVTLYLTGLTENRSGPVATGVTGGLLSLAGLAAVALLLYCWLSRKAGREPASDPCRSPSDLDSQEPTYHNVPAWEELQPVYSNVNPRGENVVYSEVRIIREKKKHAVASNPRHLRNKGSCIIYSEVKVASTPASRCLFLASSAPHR
Nature of the test: Scatchard analysis: 0.5 nM 125I-labeled antibody competed with the unlabeled antibody (50 to 0.02 nM) on SVT2.cyFcRH5 cells, 4 h at 4 C; St. Error 0.091. How it is done:
To further determine binding of the FcRH5 murine antibodies and IgG clones, binding of iodinated IgG variants to OPM2 cells expressing human FcRH5 and SVT2 cells expressing cynomologous FcRH5, Scatchard analysis was performed (Table 9A).
For Scatchard analysis, 0.5 nM I¹²⁵ labeled murine or IgG clone anti-FcRH5 was competed against unlabeled murine or IgG clone anti-FcRH5, respectively, ranging from 50 to 0.02 nM (12 step 1:2 serial dilution) in the presence of a transfected OPM2 line stably expressing human-FcRH5 and a transfected SVT2 line stably expressing cynomologous-FcRH5. After a four hour incubation at 4° C., cells were washed and cell pellet counts were read by a gamma counter (1470 WIZARD Automatic Gamma Counter; Perkin Elmer, Walthem, Mass.). All points were done in triplicate and counted for 10 minutes. The average CPM was used for Kd calculation using the New Ligand (Genentech, South San Francisco, Calif.) program.

Test [2] concerns the target T2, gD tagged human FcRH2 on SVT2 cells (human, UniProt Q96LA5 20-508).
T2 construct: whole, on cells; also called huFcRH2; not shown: gD tag; the construct for this FcRH is not described
T2 sequence (looked up): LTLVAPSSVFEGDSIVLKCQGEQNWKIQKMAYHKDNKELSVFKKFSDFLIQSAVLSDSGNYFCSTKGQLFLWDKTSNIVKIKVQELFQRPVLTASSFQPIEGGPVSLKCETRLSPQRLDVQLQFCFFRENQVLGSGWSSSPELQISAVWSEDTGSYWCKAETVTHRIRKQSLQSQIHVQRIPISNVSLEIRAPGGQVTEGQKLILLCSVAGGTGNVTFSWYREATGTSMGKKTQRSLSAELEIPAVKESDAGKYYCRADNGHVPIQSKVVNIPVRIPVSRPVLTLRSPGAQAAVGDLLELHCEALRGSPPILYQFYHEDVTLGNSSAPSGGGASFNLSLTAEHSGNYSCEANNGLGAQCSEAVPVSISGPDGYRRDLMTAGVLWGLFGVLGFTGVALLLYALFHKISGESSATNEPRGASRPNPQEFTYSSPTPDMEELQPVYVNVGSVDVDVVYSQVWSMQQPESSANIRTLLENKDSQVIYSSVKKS
Nature of the test: FACS, SVT2.MSCV.gD.FcRH2 cells, PE mu anti-human IgG.

Test [3] concerns the target T3, gD tagged human FcRH6 on SVT2 cells (human, UniProt Q6DN72 20-434).
T3 construct: whole, on cells; also called huFcRH6; not shown: gD tag; the construct for this FcRH is not described
T3 sequence (looked up): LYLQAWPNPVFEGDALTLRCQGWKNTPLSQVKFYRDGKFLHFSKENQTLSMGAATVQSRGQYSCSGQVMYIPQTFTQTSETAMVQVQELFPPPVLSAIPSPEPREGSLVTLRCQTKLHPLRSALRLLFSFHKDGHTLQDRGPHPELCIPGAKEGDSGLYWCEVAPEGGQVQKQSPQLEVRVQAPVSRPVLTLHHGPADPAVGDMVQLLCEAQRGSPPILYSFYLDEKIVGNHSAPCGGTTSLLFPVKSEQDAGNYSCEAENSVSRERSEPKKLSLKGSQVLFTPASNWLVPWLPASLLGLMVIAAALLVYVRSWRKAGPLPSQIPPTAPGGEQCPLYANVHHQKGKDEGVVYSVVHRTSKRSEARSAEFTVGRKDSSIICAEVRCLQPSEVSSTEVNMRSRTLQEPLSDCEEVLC
The test can be described thus: FACS, SVT2.MSCV.gD.FcRH6 cells, PE mu anti-human IgG. (In flow cytometry, cells or beads pass a laser one at a time.)

The target in test [4] is T4, gD tagged human FcRH1 on SVT2 cells (human, UniProt Q96LA6 17-429).
T4 construct: whole, on cells; also called huFcRH1; not shown: gD tag
T4 sequence (looked up): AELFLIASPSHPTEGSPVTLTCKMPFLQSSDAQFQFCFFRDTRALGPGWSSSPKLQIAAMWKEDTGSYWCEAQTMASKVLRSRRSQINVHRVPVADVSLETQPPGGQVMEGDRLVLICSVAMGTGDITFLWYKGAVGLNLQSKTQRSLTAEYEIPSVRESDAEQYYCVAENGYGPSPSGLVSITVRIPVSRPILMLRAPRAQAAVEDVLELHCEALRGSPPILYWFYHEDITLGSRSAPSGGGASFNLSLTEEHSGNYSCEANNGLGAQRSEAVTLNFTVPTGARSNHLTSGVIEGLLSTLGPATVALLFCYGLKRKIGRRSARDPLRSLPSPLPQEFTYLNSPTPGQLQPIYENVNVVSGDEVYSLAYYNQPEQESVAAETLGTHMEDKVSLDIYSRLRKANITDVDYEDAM
The test can be described thus: FACS, SVT2.MSCV.gD.FcRH1 cells, PE mu anti-human IgG.

Test [5] addresses T5, gD tagged human FcRH3 on SVT2 cells (human, UniProt Q96P31 18-734).
T5 construct: whole, on cells; also called huFcRH3; not shown: gD tag; the construct for this FcRH is not described
T5 sequence (looked up): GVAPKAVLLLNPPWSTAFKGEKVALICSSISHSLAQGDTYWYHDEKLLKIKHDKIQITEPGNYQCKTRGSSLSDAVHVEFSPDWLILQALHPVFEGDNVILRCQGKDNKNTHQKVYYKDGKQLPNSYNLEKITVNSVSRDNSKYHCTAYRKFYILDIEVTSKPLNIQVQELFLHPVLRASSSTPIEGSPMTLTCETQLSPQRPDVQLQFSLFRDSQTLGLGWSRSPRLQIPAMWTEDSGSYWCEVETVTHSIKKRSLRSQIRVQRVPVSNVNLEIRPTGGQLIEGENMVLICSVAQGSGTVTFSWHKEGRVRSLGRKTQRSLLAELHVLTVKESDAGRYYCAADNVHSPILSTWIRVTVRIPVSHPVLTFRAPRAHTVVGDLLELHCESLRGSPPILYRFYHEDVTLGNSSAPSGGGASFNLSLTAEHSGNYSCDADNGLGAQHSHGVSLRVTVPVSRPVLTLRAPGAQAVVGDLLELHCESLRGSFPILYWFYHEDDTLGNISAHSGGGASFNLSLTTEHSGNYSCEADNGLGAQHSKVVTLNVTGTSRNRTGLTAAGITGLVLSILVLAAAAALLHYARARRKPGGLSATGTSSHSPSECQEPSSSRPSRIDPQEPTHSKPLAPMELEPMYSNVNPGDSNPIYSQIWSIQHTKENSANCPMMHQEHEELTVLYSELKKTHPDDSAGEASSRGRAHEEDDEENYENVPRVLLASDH
Nature of the test: FACS, SVT2.MSCV.gD.FcRH3 cells, PE mu anti-human IgG.

Test [6] deals with T6, gD tagged human FcRH4 on SVT2 cells (human, UniProt Q96PJ5 20-515).
T6 construct: whole, on cells; also called huFcRH4; IRTA1; not shown: gD tag; the construct for this FcRH is not described
T6 sequence (looked up): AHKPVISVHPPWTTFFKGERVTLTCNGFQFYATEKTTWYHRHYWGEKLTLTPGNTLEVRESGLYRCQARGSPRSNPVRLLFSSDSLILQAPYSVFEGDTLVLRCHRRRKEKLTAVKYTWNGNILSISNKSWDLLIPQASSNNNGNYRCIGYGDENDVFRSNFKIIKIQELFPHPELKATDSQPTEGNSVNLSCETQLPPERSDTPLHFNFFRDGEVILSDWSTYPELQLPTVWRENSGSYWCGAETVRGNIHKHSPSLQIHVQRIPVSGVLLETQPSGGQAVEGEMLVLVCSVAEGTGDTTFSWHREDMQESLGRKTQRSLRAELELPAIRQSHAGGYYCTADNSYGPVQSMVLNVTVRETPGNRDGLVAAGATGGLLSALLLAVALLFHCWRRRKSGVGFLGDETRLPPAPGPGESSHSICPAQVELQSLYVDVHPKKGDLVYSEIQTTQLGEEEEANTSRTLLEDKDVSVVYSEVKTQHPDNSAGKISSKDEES
The test can be described thus: FACS, SVT2.MSCV.gD.FcRH4 cells, PE mu anti-human IgG.

B1: chimeric anti-human FcRH5 antibody 13G9 (antibody, human IgG1, kappa)
heavy: not shown
light: DIVMTQSQKIMSTSVGDRVNVTCKASQNVGSNVAWYHQKPGQSPKALIYSASYRYSGVPDRFTGSGSGTDFTLTISNVQSEDLAEYFCQQYKTWTFGGGTKLEIKRTVAAPSVFIFPPSDEQLKSGTASVVCLLNNFYPREAKVQWKVDNALQSGNSQESVTEQDSKDSTYSLSSTLTLSKADYEKHKVYACEVTHQGLSSPVTKSFNRGEC
notes: Expressed in 293 cells; also called ch13G9; chMAFcRH5 (13G9)
On to B1, for which the dissociation constant Kd in test [1] was 1.08 nM.

B2: chimeric anti-human FcRH5 antibody 7D11 (antibody, human IgG1, kappa)
heavy: not shown
light: DILLTQSPAILSVSPGERVSFSCRSSQSIGTNIHWYQQRTNGSPRLLIKFASESLSGIPSRFSGSGSGTDFTLSINSVESEDFADYYCQQSNSWPLTFGAGTKVEIKRTVAAPSVFIFPPSDEQLKSGTASVVCLLNNFYPREAKVQWKVDNALQSGNSQESVTEQDSKDSTYSLSSTLTLSKADYEKHKVYACEVTHQGLSSPVTKSFNRGEC
notes: Mouse/human chimeric IgG1 kappa expressed in 293 cells; also called ch7D11; Ch anti-FcRH5 (7D11)
As for B2, the binding result in test [2], in test [3], in test [4], in test [5] and in test [6] was “no binding (tested: 1.0 ug per about 10^6 cells (p-1120))” in each case.
